The source of these data is US20250084173A1 (4B TECHNOLOGIES SUZHOU, published 2025).

In test [1] the target is T1, recombinant human TrkA ECD protein (human, UniProt P04629 33-423).
T1 construct: extracellular domain; also called hTrkA-ECD-hFc; hTrkA; not shown: C-terminal human Fc tag (hFc)
The test is described as follows: ELISA on recombinant TrkA ECD proteins (FIG. 1b).

In test [2] the target is T2, recombinant mouse TrkA ECD protein (mouse, UniProt Q3UFB7 34-420).
T2 construct: extracellular domain; also called mTrkA-ECD-hFc; murine TrkA; not shown: C-terminal human Fc tag (hFc)
Kind of test: ELISA on recombinant TrkA ECD proteins (FIG. 1b).

T1 sequence (P04629 33-423): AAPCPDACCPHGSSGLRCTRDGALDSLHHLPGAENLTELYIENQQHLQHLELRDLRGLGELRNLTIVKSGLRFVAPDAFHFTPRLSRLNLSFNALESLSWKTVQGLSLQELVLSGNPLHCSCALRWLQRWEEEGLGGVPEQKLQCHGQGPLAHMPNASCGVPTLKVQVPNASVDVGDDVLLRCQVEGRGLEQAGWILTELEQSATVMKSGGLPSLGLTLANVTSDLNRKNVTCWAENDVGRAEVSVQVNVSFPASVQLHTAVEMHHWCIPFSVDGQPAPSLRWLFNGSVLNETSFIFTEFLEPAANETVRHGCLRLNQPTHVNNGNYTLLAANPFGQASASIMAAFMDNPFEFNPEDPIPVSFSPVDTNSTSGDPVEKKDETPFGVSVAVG
T2 sequence (Q3UFB7 34-420): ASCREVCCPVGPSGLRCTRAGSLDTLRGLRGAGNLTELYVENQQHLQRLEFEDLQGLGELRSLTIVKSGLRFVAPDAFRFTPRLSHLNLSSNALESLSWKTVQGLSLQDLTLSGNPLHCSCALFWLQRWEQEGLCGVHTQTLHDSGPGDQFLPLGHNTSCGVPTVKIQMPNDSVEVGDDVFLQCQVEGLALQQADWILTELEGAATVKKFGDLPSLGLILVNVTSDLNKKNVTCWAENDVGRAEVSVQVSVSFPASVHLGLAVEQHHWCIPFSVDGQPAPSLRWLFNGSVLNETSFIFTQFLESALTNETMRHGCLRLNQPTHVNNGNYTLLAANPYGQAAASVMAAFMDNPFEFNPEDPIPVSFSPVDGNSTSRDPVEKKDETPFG

B1: 27A6 (antibody, mouse IgG1, V domains shown)
VH: QVQLQQSGAELMEPGASVKISCKATGYTFSRYWIEWVQQRPGHGLEWIGEILPGSGTTNYNENFRGKATFTADTSSNTVYMQLISLTSEDSAVYYCARSYYGDFDAYWGQGTLVTVSA
VL: QAVVTQESALTTSPGETVTLTCRSSIGAVTTSNHANWVQEKPDHLFTGLIGGTNNRAPGVPARFSGSLIGDKAVLTITGAQTEDEAIYFCALWYSNHWVFGGGTKLTVLG
notes: also called TrkA antibody; TrkA antibody of the present application
Consider B1, for which the binding result in test [1] and in test [2] was “binds” throughout.
